For data set [1], the target named is T1, sDPP-IV (soluble extracellular domain of human dipeptidyl peptidase IV) (Homo sapiens, UniProt P27487).
T1 construct: The ectodomain of DPP-IV, residues 31-766 (sDPP-IV), was amplified by PCR using a cDNA; made in house; host or cells: Pichia pastoris strain GS115 (pPICZα-A vector)
As to the kind of experiment: DPP-IV activity assay, fluorescence of products from Ala-Pro-7-amido-4-trifluoromethylcoumarin. The note with it: Lineweaver-Burk plots; 50 mM Tris/HCl pH 7.8, 100 mM NaCl, 0.1 mg/ml BSA, 0.5% dimethylformamide; 25° C. The class given is biochemical. Here is the method: A 20 mM stock solution in 10% DMF is stored at −20° C. until use. […] DPP-IV activity assays were performed in 96 well plates in a total assay volume of 100 μl. The assay buffer consists of S-Buffer containing 0.1 mg/ml BSA. […] Initial rate constants are calculated by best fit linear regression.

Data set [2] concerns the target T2, DPP-IV (Homo sapiens, UniProt P27487).
T2 construct: The ectodomain of DPP-IV, residues 31-766 (sDPP-IV), was amplified by PCR using a cDNA; made in house; host or cells: Pichia pastoris strain GS115 (pPICZα-A vector)
Nature of the data set: Biacore surface plasmon resonance binding to immobilized DPP-IV. The note with it: ADA from bovine. As to the method: DPP-IV was immobilized on a CM5 surface plasmon resonance sensor (Biacore) using standard amide coupling chemistry. The organic adlayer on this sensor type consists of carboxymethylated dextran (MW≈100 kDA). After activation of the carboxylic acid groups using carbodiimide/N-hydroxysuccinimide solutions, the surface was contacted with a DPP-IV solution (80 μl) containing≈100 μg/ml protein in acetate buffer (10 mM, pH 4.5). […] The surfaces of two flow cells were modified with protein. […] Hepes buffer (0.01 M Hepes, pH 7.4, 0.15 M NaCl, 3 mM EDTA, 0.005% polysorbate 20 (v/v)) was used as the running buffer. Diprotin-A was disolved directly in this buffer. […] The final inhibitor solution contained less than 0.1% DMSO. Binding experiments were carried out by contacting the immobilized protein surfaces with inhibitor solutions of varying concentrations at a flow rate of 10 μl/min or 30 μl/min. After each contact with inhibitor, the protein surfaces were regenerated by extensively washing with running buffer.
On the technique in general: In SPR one partner is held on a chip, and binding of the other changes the refractive index at the surface.

B1: sDPP-IVdeglycos: enzymatically deglycosylated sDPP-IV (EndoF1-GST treated) (protein)
chain: GTDDATADSRKTYTLTDYLKNTYRLKLYSLRWISDHEYLYKQENNILVFNAEYGNSSVFLENSTFDEFGHSINDYSISPDGQFILLEYNYVKQWRHSYTASYDIYDLNKRQLITEERIPNNTQWVTWSPVGHKLAYVWNNDIYVKIEPNLPSYRITWTGKEDIIYNGITDWVYEEEVFSAYSALWWSPNGTFLAYAQFNDTEVPLIEYSFYSDESLQYPKTVRVPYPKAGAVNPTVKFFVVNTDSLSSVTNATSIQITAPASMLIGDHYLCDVTWATQERISLQWLRRIQNYSVMDICDYDESSGRWNCLVARQHIEMSTTGWVGRFRPSEPHFTLDGNSFYKIISNEEGYRHICYFQIDKKDCTFITKGTWEVIGIEALTSDYLYYISNEYKGMPGGRNLYKIQLSDYTKVTCLSCELNPERCQYYSVSFSKEAKYYQLRCSGPGLPLYTLHSSVNDKGLRVLEDNSALDKMLQNVQMPSKKLDFIILNETKFWYQMILPPHFDKSKKYPLLLDVYAGPCSQKADTVFRLNWATYLASTENIIVASFDGRGSGYQGDKIMHAINRRLGTFEVEDQIEAARQFSKMGFVDNKRIAIWGWSYGGYVTSMVLGSGSGVFKCGIAVAPVSRWEYYDSVYTERYMGLPTPEDNLDHYRNSTVMSRAENFKQVEYLLIHGTADDNVHFQQSAQISKALVDVGVDFQAMWYTDEDHGIASSTAHQHIYTHMSHFIKQCFSLP
By Km is commonly meant the substrate concentration at which the rate is half of its maximum. The kcat is the number of substrate molecules converted per active site and unit of time at saturation. As to B1, in data set [1], the Km is 17.2 µM and the kcat worked out at 43.1 s⁻¹.

B2: sDPP-IVglycos: glycosylated sDPP-IV (protein)
chain: GTDDATADSRKTYTLTDYLKNTYRLKLYSLRWISDHEYLYKQENNILVFNAEYGNSSVFLENSTFDEFGHSINDYSISPDGQFILLEYNYVKQWRHSYTASYDIYDLNKRQLITEERIPNNTQWVTWSPVGHKLAYVWNNDIYVKIEPNLPSYRITWTGKEDIIYNGITDWVYEEEVFSAYSALWWSPNGTFLAYAQFNDTEVPLIEYSFYSDESLQYPKTVRVPYPKAGAVNPTVKFFVVNTDSLSSVTNATSIQITAPASMLIGDHYLCDVTWATQERISLQWLRRIQNYSVMDICDYDESSGRWNCLVARQHIEMSTTGWVGRFRPSEPHFTLDGNSFYKIISNEEGYRHICYFQIDKKDCTFITKGTWEVIGIEALTSDYLYYISNEYKGMPGGRNLYKIQLSDYTKVTCLSCELNPERCQYYSVSFSKEAKYYQLRCSGPGLPLYTLHSSVNDKGLRVLEDNSALDKMLQNVQMPSKKLDFIILNETKFWYQMILPPHFDKSKKYPLLLDVYAGPCSQKADTVFRLNWATYLASTENIIVASFDGRGSGYQGDKIMHAINRRLGTFEVEDQIEAARQFSKMGFVDNKRIAIWGWSYGGYVTSMVLGSGSGVFKCGIAVAPVSRWEYYDSVYTERYMGLPTPEDNLDHYRNSTVMSRAENFKQVEYLLIHGTADDNVHFQQSAQISKALVDVGVDFQAMWYTDEDHGIASSTAHQHIYTHMSHFIKQCFSLP
Turning to B2, in data set [1], the Km came out at 15.5 µM and the kcat was 37.3 s⁻¹.

B3: ADA: adenosine deaminase, Sigma Type IV, from calf intestinal mucosa (bovine) (protein)
chain: AQTPAFNKPKVELHVHLDGAIKPETILYYGRKRGIALPADTPEELQNIIGMDKPLSLPEFLAKFDYYMPAIAGCREAVKRIAYEFVEMKAKDGVVYVEVRYSPHLLANSKVEPIPWNQAEGDLTPDEVVSLVNQGLQEGERDFGVKVRSILCCMRHQPSWSSEVVELCKKYREQTVVAIDLAGDETIEGSSLFPGHVKAYAEAVKSGVHRTVHAGEVGSANVVKEAVDTLKTERLGHGYHTLEDATLYNRLRQENMHFEVCPWSSYLTGAWKPDTEHPVVRFKNDQVNYSLNTDDPLIFKSTLDTDYQMTKNEMGFTEEEFKRLNINAAKSSFLPEDEKKELLDLLYKAYGMPSPA
As for B3, in data set [2], the “koff (dissociation rate) of ADA” value amounted to 8.75e-05 s⁻¹ and the “kon of ADA” value is 29800 M⁻¹ s⁻¹.

The record behind these values is patent US20070100561A1, “Crystals of DPP-IV” (priority 2002, published 2007).
